Patent US20170037117A1 (SALK INSTITUTE FOR BIOLOGICAL STUDIES, published 2017)
Ends that are not written are not given here.

B1: human α-CGRP fragment 1-13-COOH (peptide)
peptide: ACDTATCVTHRLA-OH
modifications: ends and bridges not checked
B2: antibody G1 Fab fragment (Fab, V domains shown)
VH: EVQLVESGGGLVQPGGSLRLSCAASGFTFSNYWISWVRQAPGKGLEWVAEIRSESDASATHYAEAVKGRFTISRDNAKNSLYLQMNSLRAEDTAVYYCLAYFDYGLAIQNYWGQGTLVTVSS
VL: EIVLTQSPATLSLSPGERATLSCKASKRVTTYVSWYQQKPGQAPRLLIYGASNRYLGIPARFSGSGSGTDFTLTISSLEPEDFAVYYCSQSYNYPYTFGQGTKLEIK
B3: Human adrenomedullin (1-52) (peptide)
peptide: YRQSMNNFQGLRSFGCRFGTCTVQKLAHQIYQFTDKDKDNVAPRSKISPQGY-NH2
modifications: ends and bridges not checked
B4: human α-CGRP fragment 1-19-COOH (peptide)
peptide: ACDTATCVTHRLAGLLSRS-OH
modifications: ends and bridges not checked
B5: Human amylin (1-37) (peptide)
peptide: KCNTATCATQRLANFLVHSSNNFGAILSSTNVGSNTY-NH2
modifications: ends and bridges not checked
B6: Human calcitonin (1-32) (peptide)
peptide: CGNLSTCMLGTYTQDFNKFHTFPQTAIGVGAP-NH2
modifications: ends and bridges not checked

Legend:
[1] = molecular target: B2; experiment: Biacore competition: G1 Fab 50 nM pre-incubated 1 h with 10 uM competing peptide, flowed over N-biotinylated human α-CGRP on SA chip; blocked ligand human α-CGRP
Excerpt: Y axis represents percentage of binding blocked by the presence of the competing peptide compared with the binding in the absence of the competing peptide.
All these peptides are amidated at the C-terminus.

[2] = molecular target: T1, human α-CGRP K35M (19-37) (human, not fully specified); experiment: Biacore competition, 50 nM G1 Fab + 10 uM peptide over human α-CGRP on chip
T1 construct: the entry already carries the mutation
T1 peptide: SGGVVKNNFVPTNVGSMAF-NH2
Excerpt: (§1) Y axis represents percentage of binding blocked by the presence of the competing peptide compared with the binding in the absence of the competing peptide. […]

[3] = molecular target: B6; experiment: as above
Excerpt: as §1

[4] = molecular target: T2, rat β-CGRP (1-37) (rat, not fully specified; C-terminal amide; N-terminal biotin when captured on the chip); experiment: as above
T2 construct: also called rat β (1-37)
T2 peptide: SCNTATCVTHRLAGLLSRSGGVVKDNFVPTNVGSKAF
Excerpt: as §1

[5] = molecular target: B3; experiment: as above
Excerpt: as §1

[6] = molecular target: B5; experiment: as above
Excerpt: as §1

[7] = molecular target: T3, human β-CGRP (1-37) (human, not fully specified; C-terminal amide; N-terminal biotin when captured on the chip); experiment: as above
T3 construct: also called human β (1-37); β-CGRP (WT)
T3 peptide: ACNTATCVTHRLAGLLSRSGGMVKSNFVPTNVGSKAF
Excerpt: as §1

[8] = molecular target: B1; experiment: as above
Excerpt: as §1

[9] = molecular target: T4, human α-CGRP K35A (19-37) (human, not fully specified); experiment: as above
T4 construct: the entry already carries the mutation
T4 peptide: SGGVVKNNFVPTNVGSAAF-NH2
Excerpt: as §1

[10] = molecular target: T5, human α-CGRP fragment 1-36-COOH (human, free C-terminus (not amidated)); experiment: as above
T5 peptide: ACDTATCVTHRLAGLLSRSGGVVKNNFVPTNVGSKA
Excerpt: as §1

[11] = molecular target: B4; experiment: as above
Excerpt: as §1

[12] = molecular target: T6, human α-CGRP P29A (19-37) (human); experiment: as above
T6 construct: the entry already carries the mutation
T6 peptide: SGGVVKNNFVATNVGSKAF-NH2
Excerpt: as §1

[13] = molecular target: human α-CGRP fragment 19-36-COOH (human, Table 4: not C-terminally amidated (19-36-COOH); paragraph 408 says amidated at the C-terminus); experiment: as above
Excerpt: as §1

[14] = molecular target: T7, human α-CGRP fragment 26-37 (human); experiment: as above
T7 peptide: NFVPTNVGSKAF-NH2
Excerpt: as §1

[15] = molecular target: T8, rat α-CGRP (1-37) (rat, not fully specified; C-terminal amide; N-terminal biotin when captured on the chip); experiment: as above
T8 construct: also called rat α (1-37); α-rat
T8 peptide: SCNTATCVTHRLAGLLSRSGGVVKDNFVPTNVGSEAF
Excerpt: as §1

[16] = molecular target: T9, human α-CGRP K35E (19-37) (human, not fully specified); experiment: as above
T9 construct: the entry already carries the mutation
T9 peptide: SGGVVKNNFVPTNVGSEAF-NH2
Excerpt: as §1

[17] = molecular target: T10, human α-CGRP 1-37 (WT) (human, not fully specified; C-terminal amide; N-terminal biotin when captured on the chip; 125I label in the radioligand assay); experiment: as above
T10 construct: also called α-human
T10 peptide: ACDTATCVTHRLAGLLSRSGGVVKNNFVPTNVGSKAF
Excerpt: as §1

[18] = molecular target: T11, human α-CGRP fragment 8-37 (human, C-terminal amide); experiment: as above
T11 peptide: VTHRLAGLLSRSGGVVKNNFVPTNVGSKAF
Excerpt: as §1

Binder: B1
- % Binding blocked [1]: 0%

Binder: B2
- percentage of binding blocked [2]: 100%
- binding result [3]: no binding (tested: 10 uM peptide)
- percentage of binding blocked [4]: 100%
- binding result [5]: no binding (tested: 10 uM peptide)
- binding result [6]: no binding (tested: 10 uM peptide)
- percentage of binding blocked [7]: 100%
- binding result [8]: no binding (tested: 10 uM peptide)
- percentage of binding blocked [9]: 100%
- percentage of binding blocked [10]: ~40%
- binding result [11]: no binding (tested: 10 uM peptide)
- percentage of binding blocked [12]: 100%
- binding result [13]: no binding (tested: 10 uM peptide)
- percentage of binding blocked [14]: 100%
- percentage of binding blocked [15]: 100%
- percentage of binding blocked [16]: 100%
- percentage of binding blocked [17]: 100%
- percentage of binding blocked [18]: 100%

Binder: B3
- % Binding blocked [1]: 0%

Binder: B4
- % Binding blocked [1]: 0%

Binder: B5
- % Binding blocked [1]: 0%

Binder: B6
- % Binding blocked [1]: 0%
